In US20140294844A1:

Molecular target: huPrP23-231 (human) (UniProt P04156)

Work on ICSM-35 (antibody) yielded an IC50 of 10.4 nM, a Kd of 10 nM and a Ki of 20 nM.
